In patent publication US20240026022A1 (OSSIANIX, published 2024):
Values belong to the binder of their own block, whether it stands above or below them.

Legend:
[1] = biological target: T1, recombinant human TfR-1 (transferrin receptor-1) (human, UniProt P02786 89-760); test: ELISA on hTfR-1 captured by plate-coated human Tf (receptor already bound to Tf), detection with anti-hFc HRP and TMB
T1 construct: extracellular domain; In-house purified recombinant protein; also called hTfR-1; hTfR1
Procedure: Competition ELISAs. For competition studies, MaxiSorp plates were coated with 100 μl of human Tf, at the concentration of 5 μg/ml overnight at 4° C. Plates were washed with phosphate-buffered saline containing 0.1% Tween20 (PBST) and blocked for 1 h with 2.5% BSA in PBST. Wells were incubated with 50 μl of hTfR-1 at 10 μg/ml for 1 h at RT and washed before adding serially diluted TXP1 and A06 VNAR antibodies for 1 h at RT. Following washing, 100 μl of 1:5,000 anti-hFc HRP-conjugated antibody (Sigma) diluted in 2.5% BSA in PBST was added and incubated for 1 h. Plates were washed and developed with SureBlue™ TMB substrate, the reaction stopped with 1% HCl and absorbance measured at 450 nm.
TXP1 competition with Tf for binding to TfR-1 was assessed by ELISA. Plates coated with Tf were used to capture hTfR-1 before incubation with serial dilutions of TXP1, A06 VNAR antibody or isotype control G12 VNAR antibody. While TXP1 and A06 VNAR antibody bind with similar nM KD in the absence of Tf (Table 5), when TfR-1 was bound to Tf, TXP1 but not the A06 VNAR antibody was still able to bind the receptor (FIG. 4).

[2] = biological target: T2, recombinant cynomolgus TfR-1 (cynomolgus, UniProt H9EXL1 89-760 (rhesus entry)); test: ELISA, plate coated with cynomolgus TfR-1, anti-hFc HRP, 4-parameter fit; drawn table under the curves
T2 construct: also called cTfR-1; cTfR1
T2 sequence (chain, as listed by the source): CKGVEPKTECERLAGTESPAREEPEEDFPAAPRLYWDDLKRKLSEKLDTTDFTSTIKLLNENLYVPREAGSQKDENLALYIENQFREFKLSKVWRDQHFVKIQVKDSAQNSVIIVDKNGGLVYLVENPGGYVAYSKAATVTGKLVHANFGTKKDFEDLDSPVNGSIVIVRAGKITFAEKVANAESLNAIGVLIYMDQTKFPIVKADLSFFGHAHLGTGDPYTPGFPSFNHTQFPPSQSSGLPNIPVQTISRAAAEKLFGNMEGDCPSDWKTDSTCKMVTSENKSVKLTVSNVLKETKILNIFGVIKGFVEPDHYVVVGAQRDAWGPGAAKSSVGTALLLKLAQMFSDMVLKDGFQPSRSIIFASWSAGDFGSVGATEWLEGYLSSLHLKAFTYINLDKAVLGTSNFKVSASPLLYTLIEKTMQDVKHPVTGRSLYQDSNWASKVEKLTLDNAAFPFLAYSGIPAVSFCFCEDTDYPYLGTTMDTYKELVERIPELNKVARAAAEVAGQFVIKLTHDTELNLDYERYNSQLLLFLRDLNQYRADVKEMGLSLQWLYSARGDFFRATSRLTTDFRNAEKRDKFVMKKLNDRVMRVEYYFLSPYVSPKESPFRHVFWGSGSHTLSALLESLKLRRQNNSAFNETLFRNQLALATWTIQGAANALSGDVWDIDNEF
Procedure: (§1) FIG. 15. Binding activity of TXP1 and deimmunized variants assessed by ELISA. Plates were coated with either human or cynomolgus or rat TfR-1. HSA was used as a negative control. Serial dilutions of TXP1 (a VNAR antibody) or the variants as Fc fusions were added to the plate and binding was measured by end-point ELISA upon incubation with secondary anti-hFc HRP-conjugated antibodies and visualization with TMB.
(§2) TfR-1 binding ELISA. Nunc MaxiSorp plates were coated with 100 μl of 1 μg/ml of in-house purified recombinant human, mouse, rat and cynomolgus TfR-1 and incubated at 4° C. overnight. Plates were incubated with blocking buffer (2.5% non-fat dry milk in PBST) for 1 h at RT. Serially-diluted TXP1 was mixed with non-fat dry milk in PBST to a final concentration of 2.5% and incubated for 30 min. Blocked TXP1 solutions (100 μl) were transferred to the blocked plates and incubated for 1 hr. Plates were washed with PBST and incubated with anti-hFc HRP-conjugated antibody diluted 1:5,000 (Sigma) in blocking buffer for 30 min. Plates were washed and developed with SureBlue™ TMB substrate, the reaction stopped with 1% HCl and absorbance measured at 450 nm.

[3] = biological target: T3, human TfR-1 on the cell surface (hCMEC/D3 and SY-SH5Y cells) (human, UniProt P02786 1-760); test: flow cytometry on hCMEC/D3 cells, percent positive cells, on ice
T3 construct: whole, on cells; also called cell surface TfR1; cell-surface hTfR1
T3 sequence (P02786 whole entry): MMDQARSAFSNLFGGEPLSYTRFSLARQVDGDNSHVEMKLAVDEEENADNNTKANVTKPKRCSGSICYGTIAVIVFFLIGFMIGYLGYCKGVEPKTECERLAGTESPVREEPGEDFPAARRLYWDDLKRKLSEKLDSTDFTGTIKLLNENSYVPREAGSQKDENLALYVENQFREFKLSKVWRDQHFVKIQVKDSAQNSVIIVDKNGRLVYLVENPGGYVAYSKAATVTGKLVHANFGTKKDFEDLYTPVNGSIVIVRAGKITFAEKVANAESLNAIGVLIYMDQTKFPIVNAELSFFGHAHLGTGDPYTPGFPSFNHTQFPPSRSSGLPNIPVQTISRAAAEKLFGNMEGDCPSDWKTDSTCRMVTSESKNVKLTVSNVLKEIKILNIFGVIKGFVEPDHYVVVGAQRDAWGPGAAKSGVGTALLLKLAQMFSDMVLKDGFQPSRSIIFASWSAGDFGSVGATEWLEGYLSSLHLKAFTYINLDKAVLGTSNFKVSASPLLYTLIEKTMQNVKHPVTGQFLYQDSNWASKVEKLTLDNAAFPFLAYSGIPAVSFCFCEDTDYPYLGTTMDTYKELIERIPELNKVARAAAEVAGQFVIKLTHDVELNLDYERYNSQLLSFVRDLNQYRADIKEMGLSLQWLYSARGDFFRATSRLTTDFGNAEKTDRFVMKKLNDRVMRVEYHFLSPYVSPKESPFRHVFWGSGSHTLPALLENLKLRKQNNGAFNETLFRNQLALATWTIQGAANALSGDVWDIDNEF
Procedure: FIG. 2. Binding of TXP1 to hCMEC/D3 cells by flow cytometry. Approximately 10,000 cells were incubated with serially diluted TXP1 for 1 hour on ice. TXP1 binding was detected using anti-human IgG Alexa488-conjugated secondary antibody. PI staining was used to exclude dead cells from the analysis. The cells were fixed and analyzed by flow cytometry. 1,000 cells per condition were acquired. Gating of cells stained with secondary antibody only allowed to set a fluorescence threshold for negative signal.
(§3) Flow cytometry. hCMEC/D3 cells (Weksler 2013) were seeded onto V-bottom 96-well plates at a density of 1×10⁴ cells/well. After blocking in PBS containing 10% BSA (FACS buffer) for 20 min on ice, cells were incubated with serial dilutions of TXP1. Cells were stained with propidium iodine (PI; Biolegend) for 20 min on ice, followed by anti-hFc conjugated to Alexa488 diluted 1:300 (Jackson ImmunoResearch) for 30 min on ice. After fixation in 4% PFA for 15 min on ice, the cells were analyzed on a CytoFlex flow cytometer (Beckman Coulter). Gating of cells stained with secondary antibody established the fluorescence threshold for the negative signal. The fluorescence intensity of approximately 1000 cells per condition was measured. Dead or dying cells were excluded from the analysis by propidium iodide staining. EC50 values were calculated using a four parametric non-linear regression model.

[4] = biological target: T1, recombinant human TfR-1 (transferrin …); test: ELISA, plate coated with human TfR-1, anti-hFc HRP, 4-parameter fit; drawn table under the curves
Procedure: as §1, §2

recombinant rat TfR-1 = biological target: T4, recombinant rat TfR-1 (rat, UniProt Q99376 87-761, limits assumed); test: ELISA, plate coated with recombinant rat TfR-1, detection with anti-hFc HRP and TMB
T4 construct: also called rTfR-1
T4 sequence (Q99376 87-761 limits assumed): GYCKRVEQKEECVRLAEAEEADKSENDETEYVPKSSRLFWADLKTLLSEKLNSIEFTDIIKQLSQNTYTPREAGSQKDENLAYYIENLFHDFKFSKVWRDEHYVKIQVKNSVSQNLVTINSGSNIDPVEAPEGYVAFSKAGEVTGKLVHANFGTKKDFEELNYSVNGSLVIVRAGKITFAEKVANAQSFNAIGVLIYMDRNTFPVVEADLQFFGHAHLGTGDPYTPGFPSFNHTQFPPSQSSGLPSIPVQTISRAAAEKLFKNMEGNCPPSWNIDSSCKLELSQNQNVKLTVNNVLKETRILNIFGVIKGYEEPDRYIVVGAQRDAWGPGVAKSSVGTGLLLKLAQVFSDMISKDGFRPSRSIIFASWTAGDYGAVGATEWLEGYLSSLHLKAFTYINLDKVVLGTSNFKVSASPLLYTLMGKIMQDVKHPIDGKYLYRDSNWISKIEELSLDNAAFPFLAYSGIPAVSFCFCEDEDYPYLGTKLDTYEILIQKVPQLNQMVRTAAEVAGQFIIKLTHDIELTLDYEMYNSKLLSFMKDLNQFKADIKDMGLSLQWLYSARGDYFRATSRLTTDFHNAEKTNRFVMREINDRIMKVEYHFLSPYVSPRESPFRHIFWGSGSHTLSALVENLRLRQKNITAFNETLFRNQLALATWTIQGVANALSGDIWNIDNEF
Procedure: as §1, with “1. Cross-species reactivity” for “15. Binding activity”, “TXP1” for “TXP1 and deimmunized variants”, “mouse, human,” for “human or”, “antibody)” for “antibody) or the variants as Fc fusions”
as §2

HSA = biological target: T5, HSA (human, UniProt P02768 25-609); test: ELISA, plate coated with HSA, detection with anti-hFc HRP and TMB
T5 construct: Negative control
T5 sequence (P02768 25-609): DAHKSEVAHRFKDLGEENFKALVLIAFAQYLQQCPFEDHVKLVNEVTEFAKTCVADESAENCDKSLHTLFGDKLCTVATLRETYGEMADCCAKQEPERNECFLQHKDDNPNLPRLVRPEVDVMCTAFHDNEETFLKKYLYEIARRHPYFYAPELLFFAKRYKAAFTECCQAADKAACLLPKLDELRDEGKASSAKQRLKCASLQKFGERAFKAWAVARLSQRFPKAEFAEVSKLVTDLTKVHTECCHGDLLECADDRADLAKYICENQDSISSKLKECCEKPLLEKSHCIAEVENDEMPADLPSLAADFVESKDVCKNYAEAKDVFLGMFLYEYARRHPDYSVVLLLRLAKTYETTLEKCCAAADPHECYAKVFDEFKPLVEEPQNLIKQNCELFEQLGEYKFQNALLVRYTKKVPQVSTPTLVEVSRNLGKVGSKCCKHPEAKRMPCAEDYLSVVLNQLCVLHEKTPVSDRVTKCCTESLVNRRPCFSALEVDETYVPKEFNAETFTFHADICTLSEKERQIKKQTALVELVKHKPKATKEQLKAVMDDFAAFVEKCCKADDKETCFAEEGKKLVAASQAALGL
Procedure: as §1, with “1. Cross-species reactivity” for “15. Binding activity”, “TXP1” for “TXP1 and deimmunized variants”, “mouse, human,” for “human or”, “antibody)” for “antibody) or the variants as Fc fusions”
as §2

recombinant mouse TfR-1 = biological target: T6, recombinant mouse TfR-1 (mouse, UniProt Q62351 89-763, limits assumed); test: ELISA, plate coated with recombinant mouse TfR-1, detection with anti-hFc HRP and TMB
T6 construct: also called mTfR-1
T6 sequence (Q62351 89-763 limits assumed): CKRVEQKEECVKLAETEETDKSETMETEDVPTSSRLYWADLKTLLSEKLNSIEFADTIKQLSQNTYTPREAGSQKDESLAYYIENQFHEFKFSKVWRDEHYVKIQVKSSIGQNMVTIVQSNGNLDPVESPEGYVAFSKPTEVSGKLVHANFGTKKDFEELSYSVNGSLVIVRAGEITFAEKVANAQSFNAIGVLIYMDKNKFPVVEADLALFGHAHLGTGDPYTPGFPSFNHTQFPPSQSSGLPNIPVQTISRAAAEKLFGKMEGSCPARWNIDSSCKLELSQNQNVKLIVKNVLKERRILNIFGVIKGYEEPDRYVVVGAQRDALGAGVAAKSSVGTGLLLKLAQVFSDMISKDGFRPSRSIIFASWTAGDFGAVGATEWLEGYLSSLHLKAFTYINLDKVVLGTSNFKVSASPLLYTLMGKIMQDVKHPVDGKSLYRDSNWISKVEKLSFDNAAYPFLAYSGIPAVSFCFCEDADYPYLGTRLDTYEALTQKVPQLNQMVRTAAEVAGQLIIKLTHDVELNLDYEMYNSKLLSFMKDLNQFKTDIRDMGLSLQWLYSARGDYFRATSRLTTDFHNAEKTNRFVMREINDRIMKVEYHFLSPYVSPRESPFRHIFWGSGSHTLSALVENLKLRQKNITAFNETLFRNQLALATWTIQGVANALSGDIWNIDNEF
Procedure: as §1, with “1. Cross-species reactivity” for “15. Binding activity”, “TXP1” for “TXP1 and deimmunized variants”, “mouse, human,” for “human or”, “antibody)” for “antibody) or the variants as Fc fusions”
as §2

[5] = biological target: T2, recombinant cynomolgus TfR-1; test: SPR
[6] = biological target: T1, recombinant human TfR-1 (transferrin …); test: SPR
[7] = biological target: T3, human TfR-1 on the cell surface …; test: flow cytometry on hCMEC/D3 cells, 1 h on ice, binding to cell surface TfR1
Procedure: as §3, with “Dead or dying cells were excluded from the analysis by propidium iodide staining.” left out
Functional activity of the fully deimmunised variants was assessed using the human endothelial cell line hCMEC/D3 and the human neuronal cell line SY-SH5Y. Binding to hCMEC/D3 cells was assessed by incubation with serial antibody dilutions for 1 h on ice to avoid internalisation. The cells were fixed and binding to cell surface TfR1 was measured by flow cytometry. […] Internalisation via cell-surface hTfR1 was assessed using the hCMEC/D3 and SY-SH5Y cell lines by incubation with the antibodies for 1 hour at 37° C.

T1 sequence (P02786 89-760): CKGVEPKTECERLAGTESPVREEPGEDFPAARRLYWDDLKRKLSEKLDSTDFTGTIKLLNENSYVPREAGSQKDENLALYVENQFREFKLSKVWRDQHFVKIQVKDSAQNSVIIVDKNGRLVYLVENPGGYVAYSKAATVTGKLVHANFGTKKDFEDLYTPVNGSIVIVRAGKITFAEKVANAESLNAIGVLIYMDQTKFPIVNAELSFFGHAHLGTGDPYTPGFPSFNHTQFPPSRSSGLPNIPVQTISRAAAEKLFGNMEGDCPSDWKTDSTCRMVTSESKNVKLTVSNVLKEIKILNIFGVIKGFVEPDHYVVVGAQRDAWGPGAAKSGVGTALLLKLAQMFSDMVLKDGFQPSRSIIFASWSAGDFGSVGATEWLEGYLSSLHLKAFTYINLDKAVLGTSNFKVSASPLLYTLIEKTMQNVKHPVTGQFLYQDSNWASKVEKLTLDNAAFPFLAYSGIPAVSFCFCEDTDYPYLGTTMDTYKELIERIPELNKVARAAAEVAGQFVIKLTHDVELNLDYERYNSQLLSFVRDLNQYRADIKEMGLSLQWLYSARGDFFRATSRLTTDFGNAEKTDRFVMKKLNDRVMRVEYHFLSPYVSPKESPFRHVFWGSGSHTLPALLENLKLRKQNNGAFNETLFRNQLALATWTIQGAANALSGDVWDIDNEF

EC50 (read off the curve) [1]: ~10 nM
EC50 [2]: 3.3 nM
EC50 [3]: 10.1 nM
EC50 [4]: 2.9 nM
binding result (recombinant rat TfR-1): no binding (tested: about 2e-6 M)
binding result (HSA): no binding (tested: about 2e-6 M)
binding result (recombinant mouse TfR-1): no binding (tested: about 2e-6 M)
B1: TXP1 (VNAR-txp1 fused to the N-terminus of human IgG1 Fc with attenuated effector function) (Fc fusion)
VNAR: ARVDQTPQTITKETGESLTINCVLRDSNCALSSTYWYRKKSGSTNEENISKGGRYVETVNSGSKSFSLKINDLTVEDSGTYRCNVVGTWCMSWRDVYGGGTAVTVNA
notes: Bivalent VNAR-hFc, VNAR at the N-terminus of hFc IgG1; also called VNAR-txp1-hFc; VNAR antibody TXP1; not shown: Human IgG1 Fc with AEF mutations (E233P/L234V/L235A/ΔG236+A327G/A330S/P331S), and any hinge or linker at the junction

Kd [5]: 1.7 nM
koff [5]: 0.00014 s⁻¹
kon [5]: 87000 M⁻¹ s⁻¹
Kd [6]: 3 nM
koff [6]: 0.00026 s⁻¹
kon [6]: 87000 M⁻¹ s⁻¹
EC50 [7]: 2.1 nM
B2: TXP1D4 (deimmunized variant VNAR-r2d4 fused to human IgG1 Fc) (Fc fusion)
VNAR: ARVDQTPQTATKETGESLTINCVLRDSNCALSSTYWYRKKSGSTNEENISKGGRKYVETVESGSKSFSLKINDLTVEDSGTYRCNVVGTWCMSWRDVSGDGTVVTVNA
notes: also called VNAR-r2d4-Fc; not shown: Human IgG1 AEF Fc and any hinge or linker at the junction
